Results: patent publication US20210252150A1 (VANDERBILT UNIVERSITY, published 2021)
Where two headings read alike, the source gives them in different places.

What was measured:
[1] = biological target: HA of A/duck/Czechoslovakia/1956 (H4); experiment: ELISA, recombinant HA
[2] = biological target: HA of A/duck/Czechoslovakia/1956 (H4); experiment: ELISA, recombinant HA; remark: listed apart in the source
[3] = biological target: HA of A/Singapore/1/1957 (H2) (influenza A virus (H2), UniProt Q67333 16-525)
[4] = biological target: HA of A/Hong Kong/1/1968 (H3N2) (influenza A virus (H3N2), UniProt Q91MA7 17-530)
[5] = biological target: T1, HA of A/California/04/2009 (H1N1) (influenza A virus (H1N1), UniProt P26140 18-529); experiment: ELISA (highest dilution tested 1/50,000)
[6] = biological target: T1, HA of A/California/04/2009 (H1N1); experiment: ELISA, recombinant HA
[7] = biological target: T1, HA of A/California/04/2009 (H1N1); experiment: ELISA, recombinant HA; remark: listed apart in the source
[8] = biological target: T1, HA of A/California/04/2009 (H1N1); experiment: BLI, Fab on immobilized biotinylated HA
[9] = biological target: T1, HA of A/California/04/2009 (H1N1); experiment: BLI, Fab on immobilized biotinylated HA; remark: listed apart in the source

B1: FluA-20 (hybridoma-produced IgG) (antibody, V domains shown)
VH: QVQLQESGPGLVKPSETLSLTCSVSGVSVTSDIYYWTWIRQPPGKGLEWIGYIFYNGDTNYNPSLKSRVTMSIDTSKNEFSLRLTSVTAADTAVYFCARGTEDLGYCSSGSCPNHWGQGTLVTVSS
VL: DIQMTQSPSSLSASIGDRVTITCRPSQNIRSFLNWFQHKPGKAPKLLIYAASNLQSGVPSRFSGSGSGTEFTLTIRSLQPEDFATYYCQQSYNTPPTFGQGTKVEIK
B1 gave an EC50 [1] of 0.013 µg/mL and an EC50 [2] of 0.007 µg/mL.

B2: rFluA-20 heavy chain mutant Y100aA (antibody, V domains shown)
VH: QVQLQESGPGLVKPSETLSLTCSVSGVSVTSDIYYWTWIRQPPGKGLEWIGYIFYNGDTNYNPSLKSRVTMSIDTSKNEFSLRLTSVTAADTAVYFCARGTEDLGACSSGSCPNHWGQGTLVTVSS
VL: DIQMTQSPSSLSASIGDRVTITCRPSQNIRSFLNWFQHKPGKAPKLLIYAASNLQSGVPSRFSGSGSGTEFTLTIRSLQPEDFATYYCQQSYNTPPTFGQGTKVEIK
With B2 the “EC50 fold over wild-type rFluA-20” value [3] was over 100 fold and the EC50 [4] was 0.07 µg/mL.

B3: rFluA-20 (recombinant FluA-20 IgG) (antibody, V domains shown)
VH: QVQLQESGPGLVKPSETLSLTCSVSGVSVTSDIYYWTWIRQPPGKGLEWIGYIFYNGDTNYNPSLKSRVTMSIDTSKNEFSLRLTSVTAADTAVYFCARGTEDLGYCSSGSCPNHWGQGTLVTVSS
VL: DIQMTQSPSSLSASIGDRVTITCRPSQNIRSFLNWFQHKPGKAPKLLIYAASNLQSGVPSRFSGSGSGTEFTLTIRSLQPEDFATYYCQQSYNTPPTFGQGTKVEIK
B3 gave an EC50 [1] of 0.018 µg/mL and an EC50 [2] of 0.007 µg/mL.

B4: rFluA-20 heavy chain mutant E97A (antibody, V domains shown)
VH: QVQLQESGPGLVKPSETLSLTCSVSGVSVTSDIYYWTWIRQPPGKGLEWIGYIFYNGDTNYNPSLKSRVTMSIDTSKNEFSLRLTSVTAADTAVYFCARGTADLGYCSSGSCPNHWGQGTLVTVSS
VL: DIQMTQSPSSLSASIGDRVTITCRPSQNIRSFLNWFQHKPGKAPKLLIYAASNLQSGVPSRFSGSGSGTEFTLTIRSLQPEDFATYYCQQSYNTPPTFGQGTKVEIK
B4 gave an EC50 [3] of 0.13 µg/mL and an EC50 [4] of 0.07 µg/mL.

B5: rFluA-20 heavy chain mutant Y34A (antibody, V domains shown)
VH: QVQLQESGPGLVKPSETLSLTCSVSGVSVTSDIAYWTWIRQPPGKGLEWIGYIFYNGDTNYNPSLKSRVTMSIDTSKNEFSLRLTSVTAADTAVYFCARGTEDLGYCSSGSCPNHWGQGTLVTVSS
VL: DIQMTQSPSSLSASIGDRVTITCRPSQNIRSFLNWFQHKPGKAPKLLIYAASNLQSGVPSRFSGSGSGTEFTLTIRSLQPEDFATYYCQQSYNTPPTFGQGTKVEIK
B5 gave an EC50 [3] of 0.11 µg/mL and an EC50 [4] of 0.07 µg/mL.

B6: rFluA-20 light chain mutant N53A (antibody, V domains shown)
VH: QVQLQESGPGLVKPSETLSLTCSVSGVSVTSDIYYWTWIRQPPGKGLEWIGYIFYNGDTNYNPSLKSRVTMSIDTSKNEFSLRLTSVTAADTAVYFCARGTEDLGYCSSGSCPNHWGQGTLVTVSS
VL: DIQMTQSPSSLSASIGDRVTITCRPSQNIRSFLNWFQHKPGKAPKLLIYAASALQSGVPSRFSGSGSGTEFTLTIRSLQPEDFATYYCQQSYNTPPTFGQGTKVEIK
Work on B6 yielded an EC50 [3] of 0.16 µg/mL and an EC50 [4] of 0.06 µg/mL.

B7: rFluA-20 heavy chain mutant T96A (antibody, V domains shown)
VH: QVQLQESGPGLVKPSETLSLTCSVSGVSVTSDIYYWTWIRQPPGKGLEWIGYIFYNGDTNYNPSLKSRVTMSIDTSKNEFSLRLTSVTAADTAVYFCARGAEDLGYCSSGSCPNHWGQGTLVTVSS
VL: DIQMTQSPSSLSASIGDRVTITCRPSQNIRSFLNWFQHKPGKAPKLLIYAASNLQSGVPSRFSGSGSGTEFTLTIRSLQPEDFATYYCQQSYNTPPTFGQGTKVEIK
With B7 the EC50 [3] was 0.07 µg/mL and the EC50 [4] was 0.1 µg/mL.

B8: H5.31 (antibody, V domains shown)
VH: EVQLVQSGGGLVQPGGSLRLSCEASRFTSSSYWITWVRQAPGKGLEWVANIKQDGSEKYFVDSVKGRFTISRDNASNSLYLQMSSLRAEDTAVYYCARGFLERLLLGRQGAYYYGMDVWGQGTTVTVSS
VL: DIQMTQSPSSLSASVGDRVTMTCRASQSISSSLNWYQQKPGKAPKLLIYAASNLQSGVPSRFSGSGSGTDFTLTISSLQPEDFATYYCQQSYTMPPELTFGGGTKVQIK
For B8, the EC50 [5] was 0.045 µg/mL.

B9: H5.28 (antibody, V domains shown)
VH: EVQLVESGGGLVQPGGSLRLSCAASGFTFSTYWMTWVRQAPGKGLEWVANINQDGGEKYFVDSVKGRFTISRDNAKNSLFLQMNTLRAEDTAVYYCARGFLERLLLGRQGAYYYGMDVWGQGTTVTVSS
VL: DIQMTQSPSSLSASVGDRVSMTCRASQIISSSLNWYQQKPGKAPKLLIYAASNLQSGVPSRFSGSGSGTDFTLTISSLQPEDFATYYCQQSYSTPPELTFGGGTKVEIK
B9 was tested, and the EC50 [5] was 0.074 µg/mL.

B10: UCA (antibody, V domains shown)
VH: QVQLQESGPGLVKPSETLSLTCTVSGGSVSSGSYYWSWIRQPPGKGLEWIGYIYYSGSTNYNPSLKSRVTISVDTSKNQFSLKLSSVTAADTAVYYCARGTEDLGYCSGGSCPNHWGQGTLVTV
VL: not shown
B10 was tested, and the EC50 [1] was 0.025 µg/mL, the EC50 [6] was 0.14 µg/mL and the EC50 [2] was 0.013 µg/mL. The EC50 [7] was 0.051 µg/mL.

B11: FluA-20 UCA Fab (unmutated common ancestor of FluA-20) (Fab, V domains shown)
VH: QVQLQESGPGLVKPSETLSLTCTVSGGSVSSGSYYWSWIRQPPGKGLEWIGYIYYSGSTNYNPSLKSRVTISVDTSKNQFSLKLSSVTAADTAVYYCARGTEDLGYCSGGSCPNHWGQGTLVTV
VL: not shown
In the case of B11, the Kd [8] is reported as 1430 nM and the Kd [9] is reported as 1430 nM.
